Test results reported in the supplement of paper PMC9112550, “Optimization of the antimicrobial peptide Bac7 by deep mutational scanning” (BMC Biology, 2022).

Test system: Escherichia coli TOP10
Assay: shrunken log2 fold change of peptide-encoding DNA abundance (4.5 h post-induction vs induction); higher = less antimicrobial activity (less host growth inhibition)
Settings: time post-induction: 4.5 h; library: site-saturation at positions 5, 18, 19, 20
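Further: peptides expressed intracellularly from a pBAD plasmid library in pooled LB shake-flask culture, induced with 0.3% L-arabinose, DNA abundance read by NGS, three biological replicates, DESeq2 with apeglm shrinkage.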

Sequence	shrunken log2 fold change
RRIRHRPPRLPRPRPRPCNHPRP	-0.292
RRIRDRPPRLPRPRPRPFHHPRP	-0.886
RRIRPRPPRLPRPRPRPTNIPRP	-0.687
RRIRFRPPRLPRPRPRPQHHPRP	-0.659
RRIRDRPPRLPRPRPRPTNHPRP	-0.247
RRIRVRPPRLPRPRPRPRRDPRP	0.141
RRIRNRPPRLPRPRPRPEANPRP	-0.0185
RRIRIRPPRLPRPRPRPVDCPRP	0.0257
RRIRARPPRLPRPRPRPYDYPRP	-0.282
RRIRERPPRLPRPRPRPDYIPRP	-0.0061
RRIRKRPPRLPRPRPRPHFTPRP	-0.0881
RRIRMRPPRLPRPRPRPGENPRP	0.00897
RRIRIRPPRLPRPRPRPTRFPRP	0.04
RRIRVRPPRLPRPRPRPDRCPRP	0.0141
RRIRLRPPRLPRPRPRPIPLPRP	0.0264
RRIRIRPPRLPRPRPRPYWPPRP	-0.28
RRIRFRPPRLPRPRPRPGIRPRP	-0.136
RRIRLRPPRLPRPRPRPKYLPRP	-0.55
RRIRPRPPRLPRPRPRPPQVPRP	0.368
RRIRARPPRLPRPRPRPTIYPRP	0.0113
RRIRFRPPRLPRPRPRPPTMPRP	0.166
RRIRCRPPRLPRPRPRPALYPRP	-0.0755
RRIRTRPPRLPRPRPRPYQHPRP	-0.376
RRIRLRPPRLPRPRPRPLSKPRP	0.0272
RRIRKRPPRLPRPRPRPRKNPRP	0.876

Sequence	shrunken log2 fold change
RRIRKRPPRLPRPRPRPDAYPRP	1.82
RRIRIRPPRLPRPRPRPKPIPRP	-0.0437
RRIRLRPPRLPRPRPRPDLNPRP	-1.09
RRIRDRPPRLPRPRPRPCDWPRP	0.0416
RRIRARPPRLPRPRPRPVKGPRP	-0.00146
RRIRNRPPRLPRPRPRPKGGPRP	0.226
RRIRPRPPRLPRPRPRPNQVPRP	0.0456
RRIRVRPPRLPRPRPRPMWSPRP	-0.0513
RRIRHRPPRLPRPRPRPDITPRP	-0.212
RRIRFRPPRLPRPRPRPSYYPRP	-1.07
RRIRKRPPRLPRPRPRPVWTPRP	0.485
RRIRNRPPRLPRPRPRPKCTPRP	0.119
RRIRARPPRLPRPRPRPGAVPRP	0.578
RRIRRRPPRLPRPRPRPMAWPRP	0.0237
RRIRPRPPRLPRPRPRPHWDPRP	-0.208
RRIRKRPPRLPRPRPRPHTPPRP	0.0819
RRIRQRPPRLPRPRPRPRWGPRP	0.447
RRIRHRPPRLPRPRPRPNFGPRP	0.00709
RRIRARPPRLPRPRPRPPKAPRP	0.685
RRIRHRPPRLPRPRPRPPICPRP	-0.0463
RRIRLRPPRLPRPRPRPVLFPRP	-0.0101
RRIRPRPPRLPRPRPRPVLRPRP	0.303
RRIRWRPPRLPRPRPRPPNFPRP	0.015
RRIRFRPPRLPRPRPRPCLAPRP	-0.245
RRIRERPPRLPRPRPRPETVPRP	0.0162

Sequence	shrunken log2 fold change
RRIRNRPPRLPRPRPRPDKHPRP	-0.0308
RRIRMRPPRLPRPRPRPMWYPRP	-0.288
RRIRCRPPRLPRPRPRPAPDPRP	0.576
RRIRFRPPRLPRPRPRPAIMPRP	-0.225
RRIRLRPPRLPRPRPRPYGFPRP	0.00785
RRIRLRPPRLPRPRPRPSFPPRP	-0.159
RRIRQRPPRLPRPRPRPRICPRP	-0.083
RRIRYRPPRLPRPRPRPVNYPRP	-0.458
RRIRNRPPRLPRPRPRPAWFPRP	0.294
RRIRVRPPRLPRPRPRPKHWPRP	0.151
RRIRDRPPRLPRPRPRPPPLPRP	0.586
RRIRCRPPRLPRPRPRPNSPPRP	-0.217
RRIRLRPPRLPRPRPRPPKDPRP	0.137
RRIRNRPPRLPRPRPRPSMWPRP	-0.0524
RRIRVRPPRLPRPRPRPWVIPRP	-0.43
RRIRFRPPRLPRPRPRPPETPRP	0.261
RRIRPRPPRLPRPRPRPCETPRP	0.0508
RRIRQRPPRLPRPRPRPFCMPRP	-0.0373
RRIRGRPPRLPRPRPRPIGDPRP	0.667
RRIRQRPPRLPRPRPRPSWWPRP	-0.176
RRIRNRPPRLPRPRPRPIIIPRP	-0.663
RRIRERPPRLPRPRPRPDTKPRP	-0.00108
RRIRFRPPRLPRPRPRPHFYPRP	-0.38
RRIRYRPPRLPRPRPRPRGSPRP	-0.285
RRIRQRPPRLPRPRPRPGTDPRP	-0.0507

Sequence	shrunken log2 fold change
RRIRHRPPRLPRPRPRPVRDPRP	0.298
RRIRYRPPRLPRPRPRPHAFPRP	0.0566
RRIRDRPPRLPRPRPRPPYGPRP	-0.0609
RRIRYRPPRLPRPRPRPARCPRP	0.0957
RRIRMRPPRLPRPRPRPTDWPRP	1.27
RRIRGRPPRLPRPRPRPNNRPRP	-0.112
RRIRSRPPRLPRPRPRPMIGPRP	0.0355
RRIRHRPPRLPRPRPRPGLHPRP	-0.308
RRIRHRPPRLPRPRPRPTHNPRP	-0.211
RRIRVRPPRLPRPRPRPHAVPRP	-0.318
RRIRIRPPRLPRPRPRPTKLPRP	-0.406
RRIRNRPPRLPRPRPRPFDVPRP	-0.0429
RRIRMRPPRLPRPRPRPAKIPRP	0.211
RRIRARPPRLPRPRPRPRGDPRP	3.26
RRIRQRPPRLPRPRPRPNPFPRP	-0.26
RRIRMRPPRLPRPRPRPTGIPRP	-0.149
RRIRGRPPRLPRPRPRPCCRPRP	0.918
RRIRSRPPRLPRPRPRPDWVPRP	0.305
RRIRHRPPRLPRPRPRPPFPPRP	0.0224
RRIRRRPPRLPRPRPRPHTAPRP	0.313
RRIRCRPPRLPRPRPRPGGLPRP	0.17
RRIRRRPPRLPRPRPRPQCHPRP	-0.0986
RRIRCRPPRLPRPRPRPSSWPRP	-0.251
RRIRERPPRLPRPRPRPVWAPRP	0.0658
RRIRGRPPRLPRPRPRPMGHPRP	0.202

Sequence	shrunken log2 fold change
RRIRIRPPRLPRPRPRPNCNPRP	-0.845
RRIRFRPPRLPRPRPRPQGHPRP	0.0395
RRIRWRPPRLPRPRPRPRPVPRP	0.728
RRIRHRPPRLPRPRPRPNRMPRP	0.0166
RRIRCRPPRLPRPRPRPHADPRP	0.145
RRIRLRPPRLPRPRPRPRCYPRP	0.0161
RRIRPRPPRLPRPRPRPPLRPRP	0.336
RRIRLRPPRLPRPRPRPFREPRP	-0.0266
RRIRYRPPRLPRPRPRPICFPRP	-0.332
RRIRIRPPRLPRPRPRPPYFPRP	-0.25
RRIRHRPPRLPRPRPRPIERPRP	0.00211
RRIRRRPPRLPRPRPRPGSRPRP	0.155
RRIRWRPPRLPRPRPRPPVSPRP	0.289
RRIRVRPPRLPRPRPRPAKWPRP	0.153
RRIRWRPPRLPRPRPRPESMPRP	0.636
RRIRSRPPRLPRPRPRPWYKPRP	-0.137
RRIRYRPPRLPRPRPRPQEHPRP	-0.65
RRIRGRPPRLPRPRPRPNKLPRP	-0.096
RRIRARPPRLPRPRPRPGLQPRP	0.577
RRIRCRPPRLPRPRPRPRRSPRP	0.762
RRIRGRPPRLPRPRPRPLTFPRP	0.077
RRIRARPPRLPRPRPRPHVHPRP	-0.192
RRIRSRPPRLPRPRPRPPVSPRP	0.308
RRIRMRPPRLPRPRPRPNFAPRP	0.318
RRIRSRPPRLPRPRPRPMDFPRP	-0.215

Sequence	shrunken log2 fold change
RRIRFRPPRLPRPRPRPATNPRP	-0.213
RRIRTRPPRLPRPRPRPKRKPRP	0.0722
RRIRTRPPRLPRPRPRPANCPRP	-0.0321
RRIRRRPPRLPRPRPRPLEIPRP	0.0856
RRIRLRPPRLPRPRPRPFFCPRP	-0.0304
RRIRTRPPRLPRPRPRPPWQPRP	0.698
RRIRHRPPRLPRPRPRPMRQPRP	0.143
RRIRIRPPRLPRPRPRPTVSPRP	-0.0336
RRIRLRPPRLPRPRPRPDAMPRP	0.224
RRIRIRPPRLPRPRPRPRRFPRP	-0.00443
RRIRPRPPRLPRPRPRPWVVPRP	0.0434
RRIRGRPPRLPRPRPRPYERPRP	-1.8
RRIRVRPPRLPRPRPRPSKKPRP	-0.0165
RRIRNRPPRLPRPRPRPNQCPRP	-0.136
RRIRMRPPRLPRPRPRPNCHPRP	0.0305
RRIRCRPPRLPRPRPRPKTCPRP	-0.211
RRIRTRPPRLPRPRPRPYINPRP	-0.879
RRIRERPPRLPRPRPRPWPVPRP	-0.643
RRIRPRPPRLPRPRPRPMFIPRP	-0.439
RRIRNRPPRLPRPRPRPNNPPRP	-0.511
RRIRYRPPRLPRPRPRPQNHPRP	-0.61
RRIRIRPPRLPRPRPRPPEAPRP	0.276
RRIRPRPPRLPRPRPRPQDFPRP	-0.0957
RRIRRRPPRLPRPRPRPQPGPRP	0.264
RRIRNRPPRLPRPRPRPRIWPRP	0.0945
